The source of these data is PMC2945410.

Data set [1] relates to O=[N+]([O-])c1ccc(OP(=O)(O)Oc2ccc([N+](=O)[O-])cc2)cc1. As to the kind of experiment: purified protein. The settings on record: standard assay: 50 mM HEPES pH 7.5, 2 mM MnCl2. The data set is classed as biochemical, Shigella flexneri.
The test system is the same in data set [2]. As to the kind of experiment: purified protein. The data set is classed as biochemical, Thiobacillus denitrificans. The settings on record: standard assay: 50 mM HEPES pH 7.5, 2 mM MnCl2.

Regarding “SFV_3559 EAL domain (YhjK) (Shigella flexneri)”, in data set [1], the Km is 14.1 ± 4.2 mM, the Vmax amounted to 2.1 µmol/min/mg, the kcat worked out at 8 s⁻¹ and the kcat/Km amounted to 600 M⁻¹ s⁻¹.

As for “TBD1265 EAL domain (Thiobacillus denitrificans ATCC 25259)”, in data set [2], the Km was 20.0 ± 1.3 mM, the Vmax stood at 0.1 µmol/min/mg, the kcat turned out to be 0.06 s⁻¹ and the kcat/Km was 3 M⁻¹ s⁻¹.

The term Km denotes the concentration of substrate that gives half-maximal velocity. As usually defined, the Vmax is the rate approached at saturating substrate. What is called kcat is the number of substrate molecules converted per active site and unit of time at saturation. The kcat/Km is the turnover number divided by the Michaelis constant.
